Results taken from paper PMC4980704.

Molecular target: VEGF165 (human, UniProt P15692-4 27-191)
Assay: MST

Binder: TGTGGGGGTGGACGGGCCGGGTAGA (structured_DNA) [V7t1 (3'-Cy3)]
- Kd: 75.9 ± 13 nM
